Each block holds one substance with its values, some of them ahead of it.
Legend:
[1] = target: Recombinant human DPP4 (R&D systems, #9168-SE) (human)
[2] = target: recombinant human PREP (R&D systems, #4308-SE) (human)
[3] = target: T1, Recombinant human FAP (R&D systems, #3715-SE) (human)
T1 sequence: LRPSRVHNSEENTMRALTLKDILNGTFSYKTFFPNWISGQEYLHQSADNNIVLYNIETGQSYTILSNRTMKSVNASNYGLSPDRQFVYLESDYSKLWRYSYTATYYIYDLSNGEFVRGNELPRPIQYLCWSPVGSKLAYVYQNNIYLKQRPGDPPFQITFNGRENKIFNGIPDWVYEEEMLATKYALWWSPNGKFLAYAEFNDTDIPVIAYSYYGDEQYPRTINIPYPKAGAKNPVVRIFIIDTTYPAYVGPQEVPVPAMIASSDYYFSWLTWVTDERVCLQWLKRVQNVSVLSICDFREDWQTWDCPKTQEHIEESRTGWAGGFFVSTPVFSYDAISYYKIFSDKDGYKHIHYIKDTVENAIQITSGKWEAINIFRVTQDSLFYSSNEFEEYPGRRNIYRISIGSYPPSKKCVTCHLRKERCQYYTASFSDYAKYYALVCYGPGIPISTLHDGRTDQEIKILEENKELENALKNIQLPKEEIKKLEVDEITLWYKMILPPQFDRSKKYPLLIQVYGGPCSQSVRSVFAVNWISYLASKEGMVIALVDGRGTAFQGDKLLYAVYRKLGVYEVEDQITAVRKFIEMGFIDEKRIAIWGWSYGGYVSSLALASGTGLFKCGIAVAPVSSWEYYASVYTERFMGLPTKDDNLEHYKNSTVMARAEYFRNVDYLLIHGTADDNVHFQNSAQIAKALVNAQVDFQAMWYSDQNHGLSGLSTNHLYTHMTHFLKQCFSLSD

[4] = target: human fibroblast activation protein (FAP) on FAP-expressing human WI-38 fibroblasts (human); assay: competition FACS, WI-38 cells, vs Cy5-labeled compound; D: pIC50 ≤6.0
[5] = target: delta (DOP) (h) (human (printed (h))) (UniProt P41143); assay: radioligand displacement, reference compound of the panel
[6] = target: COX1(h) (human (printed (h))) (UniProt P23219)
Sequence of COX1(h) (human (printed (h))) (P23219 24-599 limits assumed): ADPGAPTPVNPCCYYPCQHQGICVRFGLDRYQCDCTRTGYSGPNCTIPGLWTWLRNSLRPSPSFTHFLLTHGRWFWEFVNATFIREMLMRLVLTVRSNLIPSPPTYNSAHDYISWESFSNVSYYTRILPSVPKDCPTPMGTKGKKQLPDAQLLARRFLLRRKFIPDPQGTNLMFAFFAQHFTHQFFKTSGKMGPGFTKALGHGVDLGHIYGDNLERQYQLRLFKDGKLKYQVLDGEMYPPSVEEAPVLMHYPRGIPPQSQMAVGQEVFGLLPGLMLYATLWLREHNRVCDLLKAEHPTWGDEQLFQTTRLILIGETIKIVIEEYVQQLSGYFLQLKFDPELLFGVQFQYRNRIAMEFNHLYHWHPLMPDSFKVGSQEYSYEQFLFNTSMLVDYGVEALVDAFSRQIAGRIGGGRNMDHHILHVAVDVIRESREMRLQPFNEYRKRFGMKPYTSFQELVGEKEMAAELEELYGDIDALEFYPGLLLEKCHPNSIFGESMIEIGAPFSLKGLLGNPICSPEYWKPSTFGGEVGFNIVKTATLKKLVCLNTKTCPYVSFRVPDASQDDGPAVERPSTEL

[7] = target: T2, COX2(h) (human (printed (h))) (UniProt P35354)
T2 sequence: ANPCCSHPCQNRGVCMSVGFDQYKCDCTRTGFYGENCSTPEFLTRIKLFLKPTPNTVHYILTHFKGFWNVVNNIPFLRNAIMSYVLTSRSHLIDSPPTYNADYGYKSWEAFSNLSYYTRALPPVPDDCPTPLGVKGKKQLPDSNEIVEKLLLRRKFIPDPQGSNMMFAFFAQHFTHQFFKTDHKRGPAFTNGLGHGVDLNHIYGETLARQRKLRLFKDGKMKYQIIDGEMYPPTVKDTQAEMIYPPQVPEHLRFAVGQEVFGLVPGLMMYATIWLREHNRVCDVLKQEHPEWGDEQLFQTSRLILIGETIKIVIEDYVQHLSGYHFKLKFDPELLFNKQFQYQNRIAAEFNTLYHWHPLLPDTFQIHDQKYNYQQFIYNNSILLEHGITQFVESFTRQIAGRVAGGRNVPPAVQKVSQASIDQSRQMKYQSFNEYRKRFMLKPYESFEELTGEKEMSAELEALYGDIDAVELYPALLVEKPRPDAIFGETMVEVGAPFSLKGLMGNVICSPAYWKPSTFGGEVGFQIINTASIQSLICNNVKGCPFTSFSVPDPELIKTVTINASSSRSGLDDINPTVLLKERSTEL

[8] = target: Acetylcholinesterase (h) (human (printed (h))) (UniProt P22303)
[9] = target: Lck kinase (h) (human (printed (h))) (UniProt P06239)
[10] = target: PDE4D2 (h) (human (printed (h))) (UniProt Q08499)
Sequence of PDE4D2 (h) (human (printed (h))) (Q08499 303-809): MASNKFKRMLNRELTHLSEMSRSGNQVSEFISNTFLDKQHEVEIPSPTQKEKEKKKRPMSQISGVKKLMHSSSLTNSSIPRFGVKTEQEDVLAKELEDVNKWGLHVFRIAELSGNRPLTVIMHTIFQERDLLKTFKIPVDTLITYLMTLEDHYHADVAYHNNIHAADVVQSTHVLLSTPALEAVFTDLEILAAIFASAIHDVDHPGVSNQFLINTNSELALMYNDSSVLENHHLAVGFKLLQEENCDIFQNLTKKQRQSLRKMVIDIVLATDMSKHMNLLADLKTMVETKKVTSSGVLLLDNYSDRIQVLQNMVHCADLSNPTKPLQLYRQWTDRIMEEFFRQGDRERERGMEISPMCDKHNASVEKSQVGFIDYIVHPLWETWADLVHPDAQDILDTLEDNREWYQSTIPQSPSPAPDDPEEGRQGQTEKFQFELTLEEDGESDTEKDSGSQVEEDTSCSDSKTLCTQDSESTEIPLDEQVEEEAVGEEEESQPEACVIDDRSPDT

[11] = target: PDE3A (h) (human (printed (h))) (UniProt Q14432)
[12] = target: BZD (central); assay: radioligand displacement, 10 uM compound
[13] = target: MAO-A; assay: radioligand displacement, 10 uM compound
[14] = target: Na+ channel (site 2); assay: radioligand displacement, 10 uM compound
[15] = target: Ca2+ channel (L, dihydropyridine site); assay: radioligand displacement, 10 uM compound
[16] = target: NMDA; assay: radioligand displacement, 10 uM compound
[17] = target: KV channel; assay: radioligand displacement, 10 uM compound
[18] = target: KV channel; assay: radioligand displacement, reference compound of the panel
[19] = target: mu (MOP) (h) (human (printed (h))) (UniProt P35372); assay: as above
[20] = target: human fibroblast activation protein (FAP) on FAP-expressing human WI-38 fibroblasts (human); assay: competition FACS, WI-38 cells, vs Cy5-labeled compound; A: pIC50 >8.0

pIC50 (DPP4) [1]: < 6 pIC50
pIC50 (PREP) [2]: < 6 pIC50
Substance: Hex-[Cys(3MeBn)-Pro-Pro-Thr-Gln-Phe-Cys]-Bhk(DOTA)-OH (3BP-3397) (peptide)

pIC50 Category (Activity) [3]: < 6 pIC50
pIC50 Category (FACS) [4]: < 6 pIC50
Substance: Hex-[Cys(3MeBn)-Pro-Pro-Thr-Moo-Phe-Cys]-NH2 (peptide)

pIC50 Category (FACS) [4]: < 6 pIC50
Substance: Hex-[Cys(3MeBn)-Pro-Tap-Thr-Glu-Phe-Cys]-NH2 (peptide)

pIC50 Category (FACS) [4]: < 6 pIC50
Substance: Hex-[Cys(3MeBn)-Pro-Eay-Thr-Glu-Phe-Cys]-NH2 (peptide)

Ki [5]: 1.2 nM
Substance: DPDPE (peptide)

Substance: Hex-[Cys(tMeBn(DOTA-PP))-Pro-Pro-Thr-Gln-Phe-Cys]-Asp-NH2 (3BP-3407) (peptide)
% inhibition of control enzyme activity [6]: 10%
% inhibition of control enzyme activity [7]: -14%
% inhibition of control enzyme activity [8]: -6%
% inhibition of control enzyme activity [9]: 10%
% inhibition of control enzyme activity [10]: -5%
% inhibition of control enzyme activity [11]: -3%
pIC50 (DPP4) [1]: < 6 pIC50
pIC50 (PREP) [2]: < 6 pIC50
% Inhibition of Specific Binding [12]: -9%
% Inhibition of Specific Binding [13]: -5%
% Inhibition of Specific Binding [14]: -7%
% Inhibition of Specific Binding [15]: 42%
% Inhibition of Specific Binding [16]: 9%
% Inhibition of Specific Binding [17]: -5%

pIC50 (DPP4) [1]: < 6 pIC50
pIC50 (PREP) [2]: < 6 pIC50
Substance: DOTA-Ttds-Nle-[Cys(3MeBn)-Pro-Pro-Thr-Glu-Phe-Cys]-Asp-His-Phe-Arg-Asp-NH2 (3BP-3168) (peptide)

pIC50 (DPP4) [1]: < 6 pIC50
pIC50 (PREP) [2]: < 6 pIC50
Substance: DOTA-Ttds-Nle-[Cys(3MeBn)-Pro-Pro-Thr-Glu-Phe-Cys]-Asp-Pamb-Arg-NH2 (3BP-3321) (peptide)

pIC50 Category (FACS) [4]: < 6 pIC50
Substance: Hex-[Cys(3MeBn)-Pro-Pro-Thr-Glu-Phe-Pen]-NH2 (peptide)

pIC50 Category (Activity) [3]: < 6 pIC50
pIC50 Category (FACS) [4]: < 6 pIC50
Substance: Hex-[Cys(3MeBn)-Pro-Pro-Thr-Glu-Bip-Cys]-NH2 (peptide)

pIC50 Category (Activity) [3]: < 6 pIC50
pIC50 Category (FACS) [4]: < 6 pIC50
Substance: Hex-[Cys(3MeBn)-Pro-Pro-Thr-Nme-Phe-Cys]-NH2 (peptide)

pIC50 (DPP4) [1]: < 6 pIC50
pIC50 (PREP) [2]: < 6 pIC50
Substance: Hex-[Cys(3MeBn)-Pro-Pro-Thr-Glu-Phe-Cys]-Asp-His-Nmf-Arg-Ttds-Lys(DOTA)-NH2 (3BP-3275) (peptide)

pIC50 (DPP4) [1]: < 6 pIC50
pIC50 (PREP) [2]: < 6 pIC50
Substance: H-Met-[Cys(3MeBn)-Pro-Pro-Thr-Glu-Phe-Cys]-Asp-His-Phe-Arg-Asp-Ttds-Lys(Bio)-NH2 (3BP-2881) (peptide)

pIC50 Category (Activity) [3]: < 6 pIC50
pIC50 Category (FACS) [4]: < 6 pIC50
Substance: Hex-[Cys(3MeBn)-Pro-Pro-Thr-Glu-Nphe-Cys]-NH2 (peptide)

pIC50 Category (FACS) [4]: < 6 pIC50
Substance: Hex-[Cys(3MeBn)-Pro-Pro-Opc-Glu-Phe-Cys]-NH2 (peptide)

pIC50 (DPP4) [1]: < 6 pIC50
pIC50 (PREP) [2]: < 6 pIC50
Substance: Hex-[Cys(3MeBn)-Pro-Pro-Thr-Glu-Phe-Cys]-Asp-His-Phe-Arg-Asp-Ttds-Lys(DOTA)-NH2 (3BP-3105) (peptide)

pIC50 Category (FACS) [4]: < 6 pIC50
Substance: Hex-[Cys(3MeBn)-Pro-4Dfp-Thr-Glu-Phe-Cys]-NH2 (peptide)

Substance: alpha-dendrotoxin (from UniProt P00980) (peptide)
Ki [18]: 0.097 nM

pIC50 Category (Activity) [3]: < 6 pIC50
pIC50 Category (FACS) [4]: < 6 pIC50
Substance: DOTA-Ttds-Hci-[Cys(3MeBn)-Pro-Pro-Thr-Gln-Phe-Cys]-Bal-OH (peptide)

pIC50 (DPP4) [1]: < 6 pIC50
pIC50 (PREP) [2]: < 6 pIC50
Substance: DOTA-Ttds-Nle-[Cys(3MeBn)-Pro-Pro-Thr-Gln-Phe-Cys]-Bal-OH (3BP-3398) (peptide)

pIC50 (DPP4) [1]: < 6 pIC50
pIC50 (PREP) [2]: < 6 pIC50
Substance: DOTA-Ttds-Nle-[Cys(3MeBn)-Pro-Pro-Thr-Glu-Phe-Cys]-Asp-NH2 (3BP-3320) (peptide)

pIC50 Category (FACS) [4]: < 6 pIC50
Substance: Hex-[Cys(3MeBn)-Pro-Pro-Thr-Glu-Nmf-Cys]-NH2 (peptide)

pIC50 (DPP4) [1]: < 6 pIC50
pIC50 (PREP) [2]: < 6 pIC50
Substance: [3MeBn-Spa-Pro-Pro-Thr-Gln-Phe-Cys]-Asp-NH2 (3BP-3419) (peptide)

Ki [19]: 0.37 nM
Substance: DAMGO (peptide)

pIC50 Category (FACS) [4]: < 6 pIC50
Substance: DOTA-Ttds-Hgl-[Cys(3MeBn)-Pro-Pro-Thr-Gln-Phe-Cys]-Bal-OH (peptide)

pIC50 Category (Activity) [3]: > 8 pIC50
pIC50 Category (FACS) [20]: > 8 pIC50
Substance: Ac-Met-[Cys(3MeBn)-Pro-Pro-Thr-Glu-Phe-Cys]-Asp-his-Phe-Arg-Asp-NH2 (peptide)

pIC50 Category (FACS) [4]: < 6 pIC50
Substance: Hex-[Cys(3MeBn)-Pro-Pro-Thr-Glu-Tic-Cys]-NH2 (peptide)

pIC50 Category (Activity) [3]: > 8 pIC50
pIC50 Category (FACS) [20]: > 8 pIC50
Substance: Hex-[Cys(tMeBn(DOTA-AET))-Pro-Pro-Thr-Gln-1Ni-Cys]-OH (peptide)

pIC50 Category (Activity) [3]: > 8 pIC50
pIC50 Category (FACS) [20]: > 8 pIC50
Substance: Ac-Met-[Cys(3MeBn)-Pro-Pro-Thr-Glu-Phe-Cys]-Asp-His-Phe-Arg-NH2 (peptide)

pIC50 Category (FACS) [4]: < 6 pIC50
Substance: Hex-[Cys(3MeBn)-Pro-Pro-Orn(Ac)-Glu-Phe-Cys]-NH2 (peptide)

pIC50 (DPP4) [1]: < 6 pIC50
pIC50 (PREP) [2]: 6.2 pIC50
Substance: DOTA-Ttds-Nle-[Cys(3MeBn)-Pro-Pro-Thr-Glu-Phe-Cys]-NH2 (3BP-3319) (peptide)

Substance: Hex-[Cys(tMeBn(DOTA-AET))-Pro-Pro-Thr-Gln-Phe-Cys]-OH (3BP-3554) (peptide)
% inhibition of control enzyme activity [6]: 8%
% inhibition of control enzyme activity [7]: -22%
% inhibition of control enzyme activity [8]: 1%
% inhibition of control enzyme activity [9]: -4%
% inhibition of control enzyme activity [10]: -4%
% inhibition of control enzyme activity [11]: -37%
% Inhibition of Specific Binding [12]: 5%
% Inhibition of Specific Binding [13]: -25%
% Inhibition of Specific Binding [14]: 14%
% Inhibition of Specific Binding [15]: 54%
% Inhibition of Specific Binding [16]: 1%
% Inhibition of Specific Binding [17]: 4%

Reference: patent US20220315554A1, “COMPOUNDS COMPRISING A […] LIGAND AND USE THEREOF” (priority 2019, published 2022)
